Assay results published in patent publication US20160159919A1 (Chugai, published 2016).

B1: H87-G1d/LB-k (antibody, human IgG1, kappa, V domains shown)
VH: QDQLVQSGAEVKKPGASVKVSCKASGFNIKDTYIQWVRQAPGQGLEWMGRIDPLTGQTKYQEKFEGRVTITADTSTNTAYMELSSLRSEDTAVYYCVRSGTSFDFWGQGTLVTVSS
VL: DIQMTQSPSSLSASVGDRVTITCKASQDIHKYIAWYQQKPGQAPRLLIQYTSTLQPGVPSRFSGSGSGTDYTFTISSLQPEDIATYYCLQYDNLRTFGGGTKVEIKR
B2: H231-G1d/L73-k (antibody, human IgG1, kappa)
heavy: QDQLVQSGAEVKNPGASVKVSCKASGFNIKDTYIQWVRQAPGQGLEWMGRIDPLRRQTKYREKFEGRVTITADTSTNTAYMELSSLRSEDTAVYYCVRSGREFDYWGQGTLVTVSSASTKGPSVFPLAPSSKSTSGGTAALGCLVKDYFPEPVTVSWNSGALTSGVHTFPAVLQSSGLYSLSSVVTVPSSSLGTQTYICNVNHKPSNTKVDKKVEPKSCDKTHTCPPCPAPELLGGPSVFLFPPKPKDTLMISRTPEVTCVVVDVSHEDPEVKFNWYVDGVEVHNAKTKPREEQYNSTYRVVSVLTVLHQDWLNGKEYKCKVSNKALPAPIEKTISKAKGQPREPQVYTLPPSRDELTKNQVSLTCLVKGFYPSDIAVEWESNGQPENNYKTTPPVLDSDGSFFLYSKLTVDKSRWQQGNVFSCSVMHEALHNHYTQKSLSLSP
light: DIQMTQSPSSLSASVGDRVTITCRASQDIHKYIAWYQQKPGQAPRLLIQYTSTLQPGVPSRFSGSGSGTDYTFTISSLQPEDIATYYCLQYEQLRTFGGGTKVEIKRTVAAPSVFIFPPSDEQLKSGTASVVCLLNNFYPREAKVQWKVDNALQSGNSQESVTEQDSKDSTYSLSSTLTLSKADYEKHKVYACEVTHQGLSSPVTKSFNRGEC
B3: H240-G1d/L73-k (antibody, human IgG1, kappa, V domains shown)
VH: QDQLVQSGAEVKKPGASVKVSCKASGFNIKDTYIQWVRQAPGQGLEWMGRIDPLRKQTKYREKFEGRVTITADTSTNTAYMELSSLRSEDTAVYYCVRSGREFDYWGQGTLVTVSS
VL: DIQMTQSPSSLSASVGDRVTITCRASQDIHKYIAWYQQKPGQAPRLLIQYTSTLQPGVPSRFSGSGSGTDYTFTISSLQPEDIATYYCLQYEQLRTFGGGTKVEIKR
B4: H132-G1d/LB-k (antibody, human IgG1, kappa, V domains shown)
VH: QDQLVQSGAEVKKPGASVKVSCKASGFNIKDTYIQWVRQAPGQGLEWMGRIDPLRRNTKYREKFEGRVTITADTSTNTAYMELSSLRSEDTAVYYCVRSGRLFDFWGQGTLVTVSS
VL: DIQMTQSPSSLSASVGDRVTITCKASQDIHKYIAWYQQKPGQAPRLLIQYTSTLQPGVPSRFSGSGSGTDYTFTISSLQPEDIATYYCLQYDNLRTFGGGTKVEIKR
B5: H123-G1d/LB-k (antibody, human IgG1, kappa, V domains shown)
VH: QDQLVQSGAEVKKPGASVKVSCKASGFNIKDTYIQWVRQAPGQGLEWMGRIDPLRGNTKYREKFERRVTITADTSTNTAYMELSSLRSEDTAVYYCVRSGTLFDFWGQGTLVTVSS
VL: DIQMTQSPSSLSASVGDRVTITCKASQDIHKYIAWYQQKPGQAPRLLIQYTSTLQPGVPSRFSGSGSGTDYTFTISSLQPEDIATYYCLQYDNLRTFGGGTKVEIKR
B6: H131-G1d/LB-k (antibody, human IgG1, kappa, V domains shown)
VH: QDQLVQSGAEVKKPGASVKVSCKASGFNIKDTYIQWVRQAPGQGLEWMGRIDPLRRNTKYREKFEGRVTITADTSTNTAYMELSSLRSEDTAVYYCVRSRTLFDFWGQGTLVTVSS
VL: DIQMTQSPSSLSASVGDRVTITCKASQDIHKYIAWYQQKPGQAPRLLIQYTSTLQPGVPSRFSGSGSGTDYTFTISSLQPEDIATYYCLQYDNLRTFGGGTKVEIKR
B7: H240-G1d/L53-k (antibody, human IgG1, kappa, V domains shown)
VH: QDQLVQSGAEVKKPGASVKVSCKASGFNIKDTYIQWVRQAPGQGLEWMGRIDPLRKQTKYREKFEGRVTITADTSTNTAYMELSSLRSEDTAVYYCVRSGREFDYWGQGTLVTVSS
VL: DIQMTQSPSSLSASVGDRVTITCRASQDIHKYIAWYQQKPGQAPRLLIQYTSTLQPGVPSRFSGSGSGTDYTFTISSLQPEDIATYYCLQYDNLRTFGGGTKVEIKR
B8: H206-G1d/L73-k (antibody, human IgG1, kappa, V domains shown)
VH: QDQLVQSGAEVKNPGASVKVSCKASGFNIKDTYIQWVRQAPGQGLEWMGRIDPLRRQTKYREKFEGRVTITADTSTNTAYMELSSLRSEDTAVYYCVRSGREFDFWGQGTLVTVSS
VL: DIQMTQSPSSLSASVGDRVTITCRASQDIHKYIAWYQQKPGQAPRLLIQYTSTLQPGVPSRFSGSGSGTDYTFTISSLQPEDIATYYCLQYEQLRTFGGGTKVEIKR
B9: H133-G1d/LB-k (antibody, human IgG1, kappa, V domains shown)
VH: QDQLVQSGAEVKKPGASVKVSCKASGFNIKDTYIQWVRQAPGQGLEWMGRIDPLRRNTKYREKFEGRVTITADTSTNTAYMELSSLRSEDTAVYYCVRSGTRFDFWGQGTLVTVSS
VL: DIQMTQSPSSLSASVGDRVTITCKASQDIHKYIAWYQQKPGQAPRLLIQYTSTLQPGVPSRFSGSGSGTDYTFTISSLQPEDIATYYCLQYDNLRTFGGGTKVEIKR
B10: H206-G1d/L53-k (antibody, human IgG1, kappa, V domains shown)
VH: QDQLVQSGAEVKNPGASVKVSCKASGFNIKDTYIQWVRQAPGQGLEWMGRIDPLRRQTKYREKFEGRVTITADTSTNTAYMELSSLRSEDTAVYYCVRSGREFDFWGQGTLVTVSS
VL: DIQMTQSPSSLSASVGDRVTITCRASQDIHKYIAWYQQKPGQAPRLLIQYTSTLQPGVPSRFSGSGSGTDYTFTISSLQPEDIATYYCLQYDNLRTFGGGTKVEIKR
B11: H205-G1d/L73-k (antibody, human IgG1, kappa)
heavy: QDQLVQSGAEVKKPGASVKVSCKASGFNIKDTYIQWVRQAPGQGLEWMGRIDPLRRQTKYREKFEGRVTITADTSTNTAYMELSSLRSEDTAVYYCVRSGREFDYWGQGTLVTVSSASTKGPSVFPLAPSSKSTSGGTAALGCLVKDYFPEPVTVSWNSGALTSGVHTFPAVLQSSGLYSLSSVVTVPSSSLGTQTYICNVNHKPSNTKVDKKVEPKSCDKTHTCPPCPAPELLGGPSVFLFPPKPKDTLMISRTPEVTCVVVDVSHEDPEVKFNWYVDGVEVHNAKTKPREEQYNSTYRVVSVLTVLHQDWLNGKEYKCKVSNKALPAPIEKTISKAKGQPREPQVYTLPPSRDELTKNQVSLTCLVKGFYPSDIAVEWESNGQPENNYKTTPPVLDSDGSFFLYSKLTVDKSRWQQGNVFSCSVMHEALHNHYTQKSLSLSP
light: DIQMTQSPSSLSASVGDRVTITCRASQDIHKYIAWYQQKPGQAPRLLIQYTSTLQPGVPSRFSGSGSGTDYTFTISSLQPEDIATYYCLQYEQLRTFGGGTKVEIKRTVAAPSVFIFPPSDEQLKSGTASVVCLLNNFYPREAKVQWKVDNALQSGNSQESVTEQDSKDSTYSLSSTLTLSKADYEKHKVYACEVTHQGLSSPVTKSFNRGEC
B12: H124-G1d/LB-k (antibody, human IgG1, kappa, V domains shown)
VH: QDQLVQSGAEVKKPGASVKVSCKASGFNIKDTRIQWVRQAPGQGLEWMGRIDPLRGNTKYREKFEGRVTITADTSTNTAYMELSSLRSEDTAVYYCVRSGTLFDFWGQGTLVTVSS
VL: DIQMTQSPSSLSASVGDRVTITCKASQDIHKYIAWYQQKPGQAPRLLIQYTSTLQPGVPSRFSGSGSGTDYTFTISSLQPEDIATYYCLQYDNLRTFGGGTKVEIKR
B13: chimeric antibody EP27 (cH-G1/cL-k) (antibody, human IgG1, kappa, V domains shown)
VH: EDQLQQSGAELVKPGASVKLSCTASGFNIKDTYIQWVKLRPEQGLEWIGRIDPLNGNTKYVPKFQGKATITADTSSNTAYLQLSSLTSEDTAVYYCVRSGTLFDFWGQGTTLTVSS
VL: DIQMTQSPSSLSASLGGKVTITCKASQDIHKYIAWYQHKPGKGPRLLIQYTSTLQPGIPSRFSGSGSGRDYSFSISNLEPEDIATYYCLQYDNLRTFGGGTKLEIKR
notes: mouse EP27 variable regions with human IgG1 (G1) and kappa constant regions; also called chimeric EP27

Legend:
[1] = target: T1, cynomolgus EREG (Biacore analyte) (cynomolgus monkey, UniProt O14944 63-108 (human entry), limits assumed); assay: SPR (Biacore T100); KD for monkey EREG over KD for human EREG
T1 construct: also called cynomolgus monkey EREG; cEREG
T1 sequence (O14944 other isoform, or with tags, fused parts or gaps limits assumed): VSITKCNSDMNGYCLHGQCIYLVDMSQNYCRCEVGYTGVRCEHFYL
Protocol: (§1) The affinity and association rate constant of an anti-EREG antibody for an antigen were measured by the single-cycle kinetics method of surface plasmon resonance assay using Biacore™-T100 (GE Healthcare Japan). HBS-EP+ (GE Healthcare Japan) was used for the running buffer, and an amine coupling kit (GE Healthcare Japan) was used to covalently bond Protein A to the CM5 chip (carboxymethyl dextran-coated chip). Each anti-EREG antibody was prepared so that approximately 350 RU will be captured by Protein A. Human EREG or cynomolgus EREG used as the analyte was prepared at 0, 0.7, 1.4, 2.8, 5.6, and 11.2 nM using HBS-EP+. Measurement was carried out by first allowing Protein A to capture the antibody solution, and then at a flow rate of 30 μL/min, successively injecting each of the 0, 0.7, 1.4, 2.8, 5.6, and 11.2 nM human EREG or cynomolgus EREG solutions for three minutes to allow reaction to take place. Then, the solution was switched to HBS-EP+, and the dissociation phase was measured for 15 minutes. After completion of the dissociation phase measurement, the sensor chip was washed with 25 mM NaOH and regenerated. The measurement at zero concentration was similarly carried out by allowing Protein A to capture the antibody solution, and performing three-minute HBS-EP+ injections successively for five times to allow reaction to take place, and then switching to HBS-EP+ to measure the dissociation phase for 15 minutes. After completion of the dissociation phase measurement, the sensor chip was washed with 25 mM NaOH and regenerated. A data analysis software exclusively for Biacore, Biacore T100 Evaluation Software Version 2.0.1, was used to perform kinetic analyses to calculate the association rate constant (kₐ), dissociation rate constant (kd), and the rate constant ratio from the obtained sensorgrams. To correct for the day-to-day differences in the measurement values, FIGS. 1 to 4 and Tables 16 and 19 show ratios based on taking the value of the control sample (cH-G1/cL-k) measured on the same day as 1.

[2] = target: T2, Human EREG (Biacore analyte) (human, UniProt O14944 63-108); assay: SPR (Biacore T100), antibody captured on Protein A, EREG as analyte, single-cycle kinetics
T2 construct: also called hEREG; human epiregulin
Protocol: as §1

[3] = target: T1, cynomolgus EREG (Biacore analyte); assay: as above
Protocol: as §1

[4] = target: T1, cynomolgus EREG (Biacore analyte); assay: SPR (Biacore T100), antibody captured on Protein A, EREG as analyte; KD for monkey EREG over KD for human EREG
Protocol: as §1

[5] = target: T3, hsEREG-His (mature human EREG-6His fusion protein) (human, UniProt O14944 30-108); assay: cell-based or functional assay
T3 sequence: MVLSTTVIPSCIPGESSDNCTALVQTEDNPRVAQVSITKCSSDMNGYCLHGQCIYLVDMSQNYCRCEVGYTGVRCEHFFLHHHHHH

Binder	cEREG (nM)/hEREG (nM) [1] [ratio]	Kd [2] [nM]	koff [2] [s⁻¹]	kon [2] [M⁻¹ s⁻¹]	Kd [3] [nM]	koff [3] [s⁻¹]	kon [3] [M⁻¹ s⁻¹]	cEREG KD (nM)/hEREG KD (nM) [4] [ratio]	IC50 (read off the curve), growth ratio of EGFR_BAF cells with hsEREG-His 2.5 ng/mL [5] [µg/mL]
B1	35.1	0.15	0.0002	1.3e+06	5.2	0.0045	860000	35.1	–
B2	3.5	0.14	8.7e-05	620000	0.66	0.00028	420000	–	–
B3	3.6	0.22	7.7e-05	340000	0.87	0.00029	340000	–	~0.5
B4	–	–	–	–	–	–	–	4.6	–
B5	–	–	–	–	–	–	–	8.2	–
B6	–	–	–	–	–	–	–	4.7	–
B7	5.4	0.27	0.00011	420000	1.5	0.00089	610000	–	~0.4
B8	3.4	0.13	7.4e-05	550000	0.45	0.00023	500000	–	~0.8
B9	–	–	–	–	–	–	–	6.1	–
B10	5.2	0.17	0.00011	660000	0.94	0.00061	640000	–	–
B11	3.1	0.19	7.5e-05	390000	0.69	0.00026	370000	–	–
B12	–	–	–	–	–	–	–	20.6	–
B13	40.9	0.2	0.00022	1.1e+06	5.2	0.0052	990000	40.9	~0.7
